T1: human Tie1 Fc (Homo sapiens, UniProt P35590)
T1 construct: selected against the Tie1 extracellular domain fused to human Fc or to a histidine purification tag
T1 sequence (P35590 22-759 limits assumed): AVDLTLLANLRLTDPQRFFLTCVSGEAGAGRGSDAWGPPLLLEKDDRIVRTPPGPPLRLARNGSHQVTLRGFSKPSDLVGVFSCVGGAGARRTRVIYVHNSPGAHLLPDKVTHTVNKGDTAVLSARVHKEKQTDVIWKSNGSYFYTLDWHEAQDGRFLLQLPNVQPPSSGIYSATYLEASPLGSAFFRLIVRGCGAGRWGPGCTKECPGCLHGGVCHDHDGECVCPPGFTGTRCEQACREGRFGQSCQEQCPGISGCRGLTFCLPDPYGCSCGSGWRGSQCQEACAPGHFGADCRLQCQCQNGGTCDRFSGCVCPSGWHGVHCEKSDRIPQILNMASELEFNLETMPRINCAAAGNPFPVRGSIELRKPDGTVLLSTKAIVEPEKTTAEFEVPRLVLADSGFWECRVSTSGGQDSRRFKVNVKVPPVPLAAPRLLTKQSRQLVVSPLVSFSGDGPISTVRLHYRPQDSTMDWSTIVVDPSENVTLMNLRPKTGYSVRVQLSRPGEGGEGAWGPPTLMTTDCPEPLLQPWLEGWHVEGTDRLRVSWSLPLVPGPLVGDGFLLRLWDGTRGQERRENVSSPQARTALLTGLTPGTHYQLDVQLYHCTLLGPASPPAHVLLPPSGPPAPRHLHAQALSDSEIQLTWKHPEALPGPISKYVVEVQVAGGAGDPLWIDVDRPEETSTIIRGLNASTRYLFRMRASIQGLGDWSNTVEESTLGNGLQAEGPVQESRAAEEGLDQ


Molecular target: T1, human Tie1 Fc
Assay: ELISA on recombinant Tie1-Fc
Type: binding
Conditions: soluble Fab 5 or 1 μg per 100 μl; 500 or 50 ng antigen per well
Procedure: To evaluate if the conversion of any of the somatic mutations in the framework of E3 back to germline residues had any effect on binding activity the soluble Fabs were produced. The soluble expression vector containing the parental E3 Fab and the germlined E3 Fab construct were grown overnight at 30° C. in 2×TY broth containing 100 μg/ml ampicillin and 2% glucose and use 4 ml of this overnight culture to inoculate 400 ml of 2×TY broth containing 100 μg/ml ampicillin and 0.1% glucose. Cells were grow at 37° C. until an OD600 of 0.8-1.0, 1 mM IPTG was added and the culture was maintained at 30° C. for 4 hours. The cultures were spun down at 4,000 rpm for 15 min at 4 C. […] Dialyze against PBS using dialysis cassettes (SLIDE-A-LYSER™ Dialysis Cassettes, MWCO 10,000, Pierce, cat. no. 66380) and determine the protein concentration from the absorbance at 280 nm assuming that a 1 mg/ml solution has an absorbance of 0.86. The quality of the preparations can be analyzed by reducing and non-reducing SDS-PAGE.
Wells of an IMMULON™ 2 HB plate coated overnight with 500 ng or 50 ng of purified recombinant human Tie1-Fc target antigen per 100 microliters 0.1 M sodium bicarbonate buffer, pH 8.5. […] After washing the wells seven times 100 microliters TMB-H2O2 solution was added to each well and the plate read at 630 nm in an ELISA.

| Molecule | binding to recombinant human Tie1-Fc in ELISA |
| --- | --- |
| parental E3 Fab: soluble Fab fragment of the parental E3 anti-Tie1 antibody (antibody, V domains shown) VH: EVQLLESGGGLVQPGGSLRLSCAASGFTFSMYGMVWVRQAPGKGLEWVSVISPSGGNTGYADSVKGRFTISRDNSKNTLYLQVNSLRAEDTAVYYCARAPRGYSYGYYYWGQGTLVTVSSASTKGPSVFPLAPSSKSTSGG VL: DIQMTQSPLSLSASVGDRVTITCRASQGIGHYLAWYQQKPGKVPKLLIYTASTLQSGVPSRFSGSGSGTDFTLTINSLQPEDVATYYCQQFNSYPHTFGQGTRLDIK | bound to the recombinant human Tie1-Fc target antigen |
| germlined E3 Fab: soluble Fab of E3 with LC framework regions germlined to DPK4; LC variable SEQ ID NO:159 (antibody, V domains shown) VH: EVQLLESGGGLVQPGGSLRLSCAASGFTFSMYGMVWVRQAPGKGLEWVSVISPSGGNTGYADSVKGRFTISRDNSKNTLYLQVNSLRAEDTAVYYCARAPRGYSYGYYYWGQGTLVTVSSASTKGPSVFPLAPSSKSTSGG VL: DIQMTQSPSSLSASVGDRVTITCRASQGIGHYLAWYQQKPGKVPKLLIYTASTLQSGVPSRFSGSGSGTDFTLTISSLQPEDVATYYCQQFNSYPHTFGQGTRLEIK | bound to the recombinant human Tie1-Fc target antigen |

Reference: patent publication US20100196361A1, “Method of inhibition of vascular development using an antibody” (DYAX CORP., priority 2003, published 2010)
